# Earlier results in publication PMC11168107.
# Like-named read-outs stand apart in the source and are kept apart here.
# Assays:
# Bin1 SH3 (Homo sapiens) [1] = target: Bin1 SH3 (Homo sapiens) (UniProt O00499)
# Bin1 SH3 (Homo sapiens) [2] = target: Bin1 SH3 (Homo sapiens) (UniProt O00499); remark: listed apart in the source
# UniProt O00499, sequence (O00499 517-593): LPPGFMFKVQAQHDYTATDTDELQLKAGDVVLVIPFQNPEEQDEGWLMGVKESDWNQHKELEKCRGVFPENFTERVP
Kd (Bin1 SH3 (Homo sapiens) [1]) [µM],Kd (Bin1 SH3 (Homo sapiens) [2]) [µM],Substance
4.2,,MYC 55-68 (from UniProt P01106)
,33,MYC 1-88 (from UniProt P01106)
